The target of this test is T1, SETD3 (Homo sapiens, UniProt Q86TU7).
T1 construct: GST (cleaved yes); made in house; host or cells: Escherichia coli BL21(DE3) CodonPlus
T1 sequence (Q86TU7 1-594): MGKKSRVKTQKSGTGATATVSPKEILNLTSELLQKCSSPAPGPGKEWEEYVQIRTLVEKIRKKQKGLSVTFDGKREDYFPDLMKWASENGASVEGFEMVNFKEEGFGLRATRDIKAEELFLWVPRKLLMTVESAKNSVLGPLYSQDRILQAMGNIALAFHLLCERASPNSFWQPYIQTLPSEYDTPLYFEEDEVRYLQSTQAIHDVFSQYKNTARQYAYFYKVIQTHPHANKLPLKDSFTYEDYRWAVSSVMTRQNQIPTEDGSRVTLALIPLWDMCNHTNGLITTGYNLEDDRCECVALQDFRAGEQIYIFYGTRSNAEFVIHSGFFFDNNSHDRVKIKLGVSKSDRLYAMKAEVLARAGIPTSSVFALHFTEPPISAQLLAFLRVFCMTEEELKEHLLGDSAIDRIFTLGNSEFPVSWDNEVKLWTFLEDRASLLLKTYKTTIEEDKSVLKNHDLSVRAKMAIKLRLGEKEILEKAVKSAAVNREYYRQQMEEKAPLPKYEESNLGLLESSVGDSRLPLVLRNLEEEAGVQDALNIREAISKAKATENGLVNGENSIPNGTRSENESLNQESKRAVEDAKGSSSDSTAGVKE
Briefly: SETD3 activity on K73(66-80) at two temperatures (Supplementary Fig. 3c). The following applies: overnight, pH 8.0, [E]=15 µM, [SAM]=100 µM, [S]=700 µM. The test is classed as biochemical. The procedure: Recombinant human SETD3 (pXC2003) was expressed as a GST-fusion[22] in Escherichia coli BL21(DE3) CodonPlus^TM cells (Stratagene). The SETD3 mutants at residue 255 (N255A; pXC2093 and N255V; pXC2094) were generated with Q5 Site-Directed Mutagenesis Kit (New England Biolabs), confirmed by sequencing and the same protocol for expression and purification were followed. Briefly, the purification was conducted in a BIO-RAD NGC^TM system using a three-column chromatography of glutathione-sepharose, HiTrap Q-HP and Superdex 200. The GST tag was removed by PreScisson Protease (purified in-house). The purified SETD3 proteins at a concentration ~25–35 mg/ml were kept at −80 °C in storage buffer for future use [20 mM Tris (pH 8.0), 200 mM NaCl, 5% glycerol, and 0.5 mM tris (2-carboxyethyl) phosphine (TCEP)].
For H73 (residues 66–80), a reaction mixture contained 20 mM Tris/HCl (pH 8.0), 50 mM NaCl, 0.1 mg/ml BSA, 1 mM DTT, 0.18 µM SETD3, 40 µM SAM, and 20 µM H73 peptide, the reaction was performed for 20 min (Supplementary Fig. 3b). For K73 (residues 66–80), a reaction mixture contained 20 mM Tris/HCl (pH 8.0), 50 mM NaCl, 0.1 mg/ml BSA, 1 mM DTT, 15 µM SETD3, 100 µM SAM, and 700 µM K73 peptide, the reaction was performed overnight (Supplementary Fig. 3c). All reactions were terminated by the addition of TFA to 0.1% (v/v). […]
conditions optimized for H73(66-80) (red line): [E]=0.18 µM, [SAM]=40 µM, [S]=20 µM, pH 8.0 at room temperature for indicated reaction time. b, SETD3 activity on H73(66-80) at two difference temperatures under the conditions of [E]=0.18 µM, [SAM]=40 µM, [SH7 3]=20 µM at pH 8. 0 for 20 min reaction. c, SETD3 activity on K73 (66-80 ) at room temperature (~22 °C) and 37 °C under the conditions of increased amounts of [E]=15 µM, [SAM]=100 µM and [S K73]=700 µM at pH 8.0 for overnight reaction. Data represent the mean ± SD of N number of independent determinations (N=2 in panels a and b and N=4 in panel c) performed in duplicate. Source data are provided as a Source Data file. d, A stereo image of omit electron density (Fo -Fc) omitting the side chain of K73 in the active site contoured at 4 s above the mean.
(1 picture or pasted object on this page, not shown here)

In the case of “K73(66–80): K73-containing (H73K) actin peptide, residues 66–80 (TLKYPIEKGIVTNWD; UniProt P60709 66-80, looked up, variant H73K)”, the CH3 transferred is 1.773 µM (37 °C, replicate 1); 2.482 µM (37 °C, replicate 2); 3.183 µM (37 °C, replicate 3); 3.325 µM (37 °C, replicate 4); 0.6813 µM (RT (~22 °C), replicate 1); 0.8003 µM (RT (~22 °C), replicate 2). In addition, the CH3 transferred was found to be 0.7535 µM (RT (~22 °C), replicate 3) and 0.7963 µM (RT (~22 °C), replicate 4).

For the origin of these results see article PMC6684798, “Structural basis for the target specificity of actin histidine methyltransferase SETD3” (Nature Communications, 2019).
